According to the supplement of paper PMC7125110:
± gives the standard error. Fewer inactive variants are shown than the library holds.

B1: glmS ribozyme (parent)
chain: AUAAAAGCGCCAGAACUACAGAAAUGUAGUUGACGAGGAGGAGGUUUAUCGAAUUUUCGGCGGAUGCCUCCAAA

What was measured:
Settings in all cases: with glucosamine-6-phosphate
[1] = variants of: B1; assay: self-cleavage kobs at 640 uM GlcN6P; higher = faster cleavage; RNA array
Procedure, shortened: (§1)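 Tracking of barcoded ribozyme variants used a hybridised Cy3 probe at 37 °C, after in situ transcription by E. coli RNA polymerase on sequenced MiSeq chips. The flowed solution held 40 μM to 10 mM glucosamine-6-phosphate in HEPES/KCl/Mg(OAc)2 buffer, and imaging ran over ~14 h. kobs was taken from exponential decay fits of normalised per-tile medians, and kcat and KM from weighted Michaelis–Menten fits.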

[2] = variants of: B1; assay: self-cleavage kobs at 10000 uM GlcN6P; higher = faster cleavage; RNA array
Procedure, shortened: as §1

[3] = variants of: B1; assay: self-cleavage kobs at 2500 uM GlcN6P; higher = faster cleavage; RNA array
Procedure, shortened: as §1

Variant | self-cleavage kobs at 640 uM GlcN6P [1] | self-cleavage kobs at 10000 uM GlcN6P [2] | self-cleavage kobs at 2500 uM GlcN6P [3]
U30A G51C | < 1e-05 s⁻¹ | < 1e-05 s⁻¹ | 
U30G A39U U45G | 0.000324 ± 5.9e-05 s⁻¹ | 0.0014 ± 0.00018 s⁻¹ | 0.00055 ± 0.0001 s⁻¹
G35C G43U A52U C61U | < 1e-05 s⁻¹ |  | < 1e-05 s⁻¹
G32U G35A U55G C68A | < 1e-05 s⁻¹ |  | < 1e-05 s⁻¹
C34G U65G | < 1e-05 s⁻¹ | < 1e-05 s⁻¹ | < 1e-05 s⁻¹
A33U G60A A64G | < 1e-05 s⁻¹ |  | < 1e-05 s⁻¹
G29C G43U A64U C68G | < 1e-05 s⁻¹ |  | 
G29U U45C U55G | 3.35e-05 ± 1.5e-05 s⁻¹ |  | 7.82e-05 ± 1.1e-05 s⁻¹
A33U G44C G51A U56A | < 1e-05 s⁻¹ |  | 
C34G U46A U49A | < 1e-05 s⁻¹ |  | 
G35U A48C C68A | < 1e-05 s⁻¹ |  | 
A33U G44U U46G | < 1e-05 s⁻¹ |  | < 1e-05 s⁻¹
G32U G62A C67A | < 1e-05 s⁻¹ |  | 
U30G G35A A39U U55C | < 1e-05 s⁻¹ |  | < 1e-05 s⁻¹
G29C U49C C50G G51U U65C | < 1e-05 s⁻¹ |  | < 1e-05 s⁻¹
A33C A52G C67U | < 1e-05 s⁻¹ |  | < 1e-05 s⁻¹
G32C U56A U65G U69G | 0.000283 ± 0.0001 s⁻¹ |  | 6.06e-05 ± 3e-05 s⁻¹
C34G U69G | 0.000107 ± 2e-05 s⁻¹ |  | 8.27e-05 ± 2.5e-05 s⁻¹
U31A G32C C61U | < 1e-05 s⁻¹ |  | 
G32A G44U C67G | 0.000431 ± 0.0001 s⁻¹ |  | 0.00127 ± 0.00059 s⁻¹
G29U G32U G38A C61A C67U | 0.000133 ± 3.8e-05 s⁻¹ |  | 0.00034 ± 9.8e-05 s⁻¹
U31C G60U G63C | < 1e-05 s⁻¹ |  | 
A36C G41A U45G A52U | < 1e-05 s⁻¹ |  | 

Variant | self-cleavage kobs at 640 uM GlcN6P [1] | self-cleavage kobs at 10000 uM GlcN6P [2] | self-cleavage kobs at 2500 uM GlcN6P [3]
U30A G38U | < 1e-05 s⁻¹ |  | < 1e-05 s⁻¹
G32C G35A A36U U47G U56G | < 1e-05 s⁻¹ |  | < 1e-05 s⁻¹
U30G C50U A64G G66U | < 1e-05 s⁻¹ |  | < 1e-05 s⁻¹
G35C U49A G51U A53U | < 1e-05 s⁻¹ |  | < 1e-05 s⁻¹
A33C G44C C58U C61A | < 1e-05 s⁻¹ |  | < 1e-05 s⁻¹
C34U G51A U57G U69G | 0.000271 ± 9.8e-05 s⁻¹ | 0.000296 ± 7.8e-05 s⁻¹ | 
G32U C58A C67A | 7.59e-05 ± 1.8e-05 s⁻¹ |  | 0.000241 ± 4.9e-05 s⁻¹
A36C G51A C70G | 9.36e-05 ± 3.3e-05 s⁻¹ |  | 
G29U U31G U47G C71A | 9.8e-05 ± 3.6e-05 s⁻¹ |  | 
G32A G44U A53C | < 1e-05 s⁻¹ |  | < 1e-05 s⁻¹
A33U C34U A36C U69G | 0.000124 ± 6e-05 s⁻¹ |  | 
G29C G37A G38U A52G | < 1e-05 s⁻¹ |  | 
A36C A42U A52G C70U | < 1e-05 s⁻¹ |  | 
U30C U31A U45A | 0.00111 ± 0.00052 s⁻¹ |  | 0.000661 ± 0.0003 s⁻¹
G32A A48C U55G G66A | < 1e-05 s⁻¹ |  | 
G35A A53G G60C | < 1e-05 s⁻¹ |  | < 1e-05 s⁻¹
C19A A33U C50G U56C C58U G63U C68G | 0.000599 ± 0.00016 s⁻¹ |  | 
G29U A33C C50U U57A C61U | < 1e-05 s⁻¹ |  | 
A33G C50G C68G | 0.00023 ± 6.4e-05 s⁻¹ |  | 0.000213 ± 4e-05 s⁻¹
G32A C50U C70G | 0.000126 ± 4.6e-05 s⁻¹ |  | 
G29U G40A C70U | 3.68e-05 ± 1.2e-05 s⁻¹ |  | 
A33C A52C | < 1e-05 s⁻¹ |  | < 1e-05 s⁻¹
C19A U54C C58A C68G | 9.88e-05 ± 2.4e-05 s⁻¹ |  | 0.00036 ± 0.0001 s⁻¹

Variant | self-cleavage kobs at 640 uM GlcN6P [1] | self-cleavage kobs at 10000 uM GlcN6P [2] | self-cleavage kobs at 2500 uM GlcN6P [3]
U31C G37A G44U A48U C50A U65G | < 1e-05 s⁻¹ |  | 
G35U A39G G43A | < 1e-05 s⁻¹ |  | < 1e-05 s⁻¹
U31A A42U U57A A64G C71A | < 1e-05 s⁻¹ |  | 
U31G U55A U69G | 7.53e-05 ± 1.6e-05 s⁻¹ |  | 7.74e-05 ± 2.2e-05 s⁻¹
G29A U30A A42G A53G | 9.25e-05 ± 2.3e-05 s⁻¹ |  | 
U31A G37U U47A U54C U69G | 5.3e-05 ± 2e-05 s⁻¹ |  | 
G35A U45G U57C | < 1e-05 s⁻¹ |  | 
G29C A48G G60A | < 1e-05 s⁻¹ |  | 
G29A U56A A64G | 0.000408 ± 0.00012 s⁻¹ | 0.00195 ± 0.00041 s⁻¹ | 0.00201 ± 0.00043 s⁻¹
G35C A36U A39G | < 1e-05 s⁻¹ |  | 
U31C G32A A39G | 0.000252 ± 4.9e-05 s⁻¹ | 0.0014 ± 0.00028 s⁻¹ | 
A33U A48C G63A | < 1e-05 s⁻¹ |  | < 1e-05 s⁻¹
U30A G37C A53U | < 1e-05 s⁻¹ | < 1e-05 s⁻¹ | 
A36C A39C A53G | < 1e-05 s⁻¹ |  | < 1e-05 s⁻¹
A28C A33U G59U C61U | < 1e-05 s⁻¹ |  | 
G29C G59U C71U | < 1e-05 s⁻¹ |  | 
U31C A52C C71A | < 1e-05 s⁻¹ |  | 
U30C A36C A39U G43A G44U | < 1e-05 s⁻¹ |  | 
A33G A36G G38A | < 1e-05 s⁻¹ |  | 
C34A C67A | < 1e-05 s⁻¹ | < 1e-05 s⁻¹ | 
A33U U45G U47A C67A C68G | < 1e-05 s⁻¹ |  | < 1e-05 s⁻¹
